Literature values, collected in publication PMC3433420.
Like-named read-outs stand apart in the source and are kept apart here.

Key:
Details in all cases: cited from earlier work
SYK-NC (Homo sapiens) = SYK-NC (Homo sapiens) (UniProt P43405)
SYK-C (Homo sapiens) = SYK-C (Homo sapiens) (UniProt P43405)
GRB7 (Homo sapiens) = GRB7 (Homo sapiens) (UniProt Q14451)
PIK3R1-N (Homo sapiens) = PIK3R1-N (Homo sapiens) (UniProt P27986)
BLK (Homo sapiens) [1] = molecular target: BLK (Homo sapiens) (UniProt P51451)
Sequence of BLK (Homo sapiens) (P51451 119-225): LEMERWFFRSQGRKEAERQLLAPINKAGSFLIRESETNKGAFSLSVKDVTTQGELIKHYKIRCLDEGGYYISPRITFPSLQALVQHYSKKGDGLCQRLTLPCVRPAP

ITK (Homo sapiens) [2] = molecular target: ITK (Homo sapiens) (UniProt Q08881)
Sequence of ITK (Homo sapiens) (Q08881 234-343): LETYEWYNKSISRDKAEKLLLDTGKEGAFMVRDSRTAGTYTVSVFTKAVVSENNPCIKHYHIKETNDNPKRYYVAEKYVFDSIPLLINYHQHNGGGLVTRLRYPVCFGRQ

ABL2 (Homo sapiens) [3] = molecular target: ABL2 (Homo sapiens) (UniProt P42684)
Sequence of ABL2 (Homo sapiens) (P42684 168-268): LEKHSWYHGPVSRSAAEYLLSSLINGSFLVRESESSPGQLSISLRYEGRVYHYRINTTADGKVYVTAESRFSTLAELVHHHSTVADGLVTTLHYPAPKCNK

PLCG2-NC (Homo sapiens) = PLCG2-NC (Homo sapiens) (UniProt P16885)
Sequence of PLCG2-NC (Homo sapiens) (P16885 527-740): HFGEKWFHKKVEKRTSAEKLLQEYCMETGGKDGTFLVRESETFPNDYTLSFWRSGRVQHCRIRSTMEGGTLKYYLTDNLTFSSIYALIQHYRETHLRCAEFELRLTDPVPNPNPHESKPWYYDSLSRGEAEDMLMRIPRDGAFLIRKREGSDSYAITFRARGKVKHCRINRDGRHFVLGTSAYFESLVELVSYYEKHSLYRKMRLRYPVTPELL

PIK3R3-NC (Homo sapiens) [4] = molecular target: PIK3R3-NC (Homo sapiens) (UniProt Q92569)
RASA1-N (Homo sapiens) [5] = molecular target: RASA1-N (Homo sapiens) (UniProt P20936)
Sequence of RASA1-N (Homo sapiens) (P20936 176-446): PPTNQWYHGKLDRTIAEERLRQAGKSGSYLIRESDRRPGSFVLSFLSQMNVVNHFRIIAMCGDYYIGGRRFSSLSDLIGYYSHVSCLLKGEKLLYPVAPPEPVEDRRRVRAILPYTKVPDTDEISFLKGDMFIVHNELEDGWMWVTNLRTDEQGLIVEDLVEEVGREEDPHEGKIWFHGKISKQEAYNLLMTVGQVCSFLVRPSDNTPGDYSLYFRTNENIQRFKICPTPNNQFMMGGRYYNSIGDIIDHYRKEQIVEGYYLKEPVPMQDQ

GRB2 (Homo sapiens) [6] = molecular target: GRB2 (Homo sapiens) (UniProt P62993)
Sequence of GRB2 (Homo sapiens) (P62993 55-157): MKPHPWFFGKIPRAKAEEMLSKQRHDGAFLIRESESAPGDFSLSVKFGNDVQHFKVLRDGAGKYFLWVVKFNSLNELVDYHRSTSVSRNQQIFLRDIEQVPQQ

PIK3R1-NC (Homo sapiens) [7] = molecular target: PIK3R1-NC (Homo sapiens) (UniProt P27986)
Sequence of PIK3R1-NC (Homo sapiens) (P27986 328-723): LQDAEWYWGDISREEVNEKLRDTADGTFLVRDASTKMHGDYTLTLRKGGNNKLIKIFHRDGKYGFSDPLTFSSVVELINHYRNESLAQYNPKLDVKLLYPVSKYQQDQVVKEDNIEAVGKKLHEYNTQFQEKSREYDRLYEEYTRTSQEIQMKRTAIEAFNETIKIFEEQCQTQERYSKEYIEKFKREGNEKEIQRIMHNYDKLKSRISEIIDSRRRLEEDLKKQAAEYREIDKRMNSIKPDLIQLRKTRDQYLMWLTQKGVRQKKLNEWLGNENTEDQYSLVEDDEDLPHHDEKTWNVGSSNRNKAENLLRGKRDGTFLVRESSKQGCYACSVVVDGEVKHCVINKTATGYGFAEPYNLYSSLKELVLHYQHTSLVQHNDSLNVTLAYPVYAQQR

ABL1 (Homo sapiens) [8] = molecular target: ABL1 (Homo sapiens) (UniProt P00519)
Sequence of ABL1 (Homo sapiens) (P00519 122-222): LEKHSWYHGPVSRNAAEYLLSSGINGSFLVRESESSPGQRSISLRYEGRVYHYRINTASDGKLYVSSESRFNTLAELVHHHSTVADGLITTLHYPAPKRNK

NCK2 (Homo sapiens) [9] = molecular target: NCK2 (Homo sapiens) (UniProt O43639)
Sequence of NCK2 (Homo sapiens) (O43639 280-380): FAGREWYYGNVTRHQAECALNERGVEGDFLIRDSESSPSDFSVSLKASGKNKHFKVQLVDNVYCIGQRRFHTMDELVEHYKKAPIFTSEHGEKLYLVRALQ

GRB10 (Homo sapiens) = GRB10 (Homo sapiens) (UniProt Q13322)
Sequence of GRB10 (Homo sapiens) (Q13322 488-579): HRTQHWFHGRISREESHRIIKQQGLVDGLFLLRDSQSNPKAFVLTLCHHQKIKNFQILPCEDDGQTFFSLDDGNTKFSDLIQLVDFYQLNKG

PIK3R3-N (Homo sapiens) [10] = molecular target: PIK3R3-N (Homo sapiens) (UniProt Q92569)
SRC (Homo sapiens) = SRC (Homo sapiens) (UniProt P12931)
PIK3R2-NC (Homo sapiens) [11] = molecular target: PIK3R2-NC (Homo sapiens) (UniProt O00459)
Sequence of PIK3R2-NC (Homo sapiens) (O00459 325-721): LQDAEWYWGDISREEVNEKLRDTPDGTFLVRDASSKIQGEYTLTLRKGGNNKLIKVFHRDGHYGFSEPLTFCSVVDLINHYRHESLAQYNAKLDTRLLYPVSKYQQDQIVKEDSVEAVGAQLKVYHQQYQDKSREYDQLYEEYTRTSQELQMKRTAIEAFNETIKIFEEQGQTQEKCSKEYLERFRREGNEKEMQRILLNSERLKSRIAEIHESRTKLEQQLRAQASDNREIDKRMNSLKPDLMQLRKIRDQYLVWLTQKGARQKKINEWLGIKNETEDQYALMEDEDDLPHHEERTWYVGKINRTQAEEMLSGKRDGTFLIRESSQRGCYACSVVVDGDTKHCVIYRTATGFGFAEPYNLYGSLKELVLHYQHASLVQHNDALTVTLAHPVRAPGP

VAV2 (Homo sapiens) [12] = molecular target: VAV2 (Homo sapiens) (UniProt P52735)
Sequence of VAV2 (Homo sapiens) (P52735 668-772): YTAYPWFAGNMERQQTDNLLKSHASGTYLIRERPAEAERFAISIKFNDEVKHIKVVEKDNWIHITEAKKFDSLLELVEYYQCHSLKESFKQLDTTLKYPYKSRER

YES1 (Homo sapiens) = YES1 (Homo sapiens) (UniProt P07947)
Sequence of YES1 (Homo sapiens) (P07947 153-260): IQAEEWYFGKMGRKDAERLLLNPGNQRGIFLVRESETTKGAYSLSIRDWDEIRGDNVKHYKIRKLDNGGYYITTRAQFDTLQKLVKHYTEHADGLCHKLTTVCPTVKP

PIK3R2-N (Homo sapiens) [13] = molecular target: PIK3R2-N (Homo sapiens) (UniProt O00459)
Sequence of PIK3R2-N (Homo sapiens) (O00459 325-721): as the sequence (O00459 325-721) above

ABL2 (Homo sapiens) [14] = molecular target: ABL2 (Homo sapiens) (UniProt P42684); remark: listed apart in the source
ABL2 (Homo sapiens) [15] = molecular target: ABL2 (Homo sapiens) (UniProt P42684); remark: listed apart in the source
PIK3R3-NC (Homo sapiens) [16] = molecular target: PIK3R3-NC (Homo sapiens) (UniProt Q92569); remark: listed apart in the source
ABL1 (Homo sapiens) [17] = molecular target: ABL1 (Homo sapiens) (UniProt P00519); remark: listed apart in the source
NCK2 (Homo sapiens) [18] = molecular target: NCK2 (Homo sapiens) (UniProt O43639); remark: listed apart in the source
SHC1-PTB (Homo sapiens) [19] = molecular target: SHC1-PTB (Homo sapiens) (UniProt P29353)
Sequence of SHC1-PTB (Homo sapiens) (P29353 483-583): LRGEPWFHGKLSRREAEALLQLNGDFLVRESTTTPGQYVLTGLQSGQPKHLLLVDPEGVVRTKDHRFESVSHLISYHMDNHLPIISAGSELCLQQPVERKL

SHC1-PTB (Homo sapiens) [20] = molecular target: SHC1-PTB (Homo sapiens) (UniProt P29353); remark: listed apart in the source
ITK (Homo sapiens) [21] = molecular target: ITK (Homo sapiens) (UniProt Q08881); remark: listed apart in the source
ABL2 (Homo sapiens) [22] = molecular target: ABL2 (Homo sapiens) (UniProt P42684); remark: listed apart in the source
ABL2 (Homo sapiens) [23] = molecular target: ABL2 (Homo sapiens) (UniProt P42684); remark: listed apart in the source
PIK3R3-NC (Homo sapiens) [24] = molecular target: PIK3R3-NC (Homo sapiens) (UniProt Q92569); remark: listed apart in the source
RASA1-N (Homo sapiens) [25] = molecular target: RASA1-N (Homo sapiens) (UniProt P20936); remark: listed apart in the source
ZAP70-NC (Homo sapiens) = ZAP70-NC (Homo sapiens) (UniProt P43403)
Sequence of ZAP70-NC (Homo sapiens) (P43403 5-259): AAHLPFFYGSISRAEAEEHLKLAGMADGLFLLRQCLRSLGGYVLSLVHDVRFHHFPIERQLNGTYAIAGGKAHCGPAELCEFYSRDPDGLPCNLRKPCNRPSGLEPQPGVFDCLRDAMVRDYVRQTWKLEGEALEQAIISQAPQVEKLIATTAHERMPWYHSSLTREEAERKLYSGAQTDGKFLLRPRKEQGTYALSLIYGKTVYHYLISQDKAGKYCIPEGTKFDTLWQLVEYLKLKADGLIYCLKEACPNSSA

GRB2 (Homo sapiens) [26] = molecular target: GRB2 (Homo sapiens) (UniProt P62993); remark: listed apart in the source
GRB2 (Homo sapiens) [27] = molecular target: GRB2 (Homo sapiens) (UniProt P62993); remark: listed apart in the source
PIK3R1-NC (Homo sapiens) [28] = molecular target: PIK3R1-NC (Homo sapiens) (UniProt P27986); remark: listed apart in the source
NCK2 (Homo sapiens) [29] = molecular target: NCK2 (Homo sapiens) (UniProt O43639); remark: listed apart in the source
PIK3R3-N (Homo sapiens) [30] = molecular target: PIK3R3-N (Homo sapiens) (UniProt Q92569); remark: listed apart in the source
PIK3R2-NC (Homo sapiens) [31] = molecular target: PIK3R2-NC (Homo sapiens) (UniProt O00459); remark: listed apart in the source
SHC1-PTB (Homo sapiens) [32] = molecular target: SHC1-PTB (Homo sapiens) (UniProt P29353); remark: listed apart in the source
SHC1-PTB (Homo sapiens) [33] = molecular target: SHC1-PTB (Homo sapiens) (UniProt P29353); remark: listed apart in the source
VAV2 (Homo sapiens) [34] = molecular target: VAV2 (Homo sapiens) (UniProt P52735); remark: listed apart in the source
PIK3R2-N (Homo sapiens) [35] = molecular target: PIK3R2-N (Homo sapiens) (UniProt O00459); remark: listed apart in the source
BLK (Homo sapiens) [36] = molecular target: BLK (Homo sapiens) (UniProt P51451); remark: listed apart in the source
ABL2 (Homo sapiens) [37] = molecular target: ABL2 (Homo sapiens) (UniProt P42684); remark: listed apart in the source
ABL2 (Homo sapiens) [38] = molecular target: ABL2 (Homo sapiens) (UniProt P42684); remark: listed apart in the source

Sequence of PIK3R1-N (Homo sapiens) (P27986 328-723): as the sequence (P27986 328-723) above
Sequence of GRB7 (Homo sapiens) (Q14451 426-532): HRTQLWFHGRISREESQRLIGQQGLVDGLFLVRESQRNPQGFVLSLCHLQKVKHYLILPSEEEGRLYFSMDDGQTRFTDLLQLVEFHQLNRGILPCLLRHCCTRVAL

…pYINQSVPKd
apparent Kd (screen) (SYK-NC (Homo sapiens)): 908 nM
apparent Kd (screen) (SYK-C (Homo sapiens)): 1920 nM
apparent Kd (screen) (GRB7 (Homo sapiens)): 1980 nM
apparent Kd (screen) (PIK3R1-N (Homo sapiens)): 1080 nM
apparent Kd (screen) (BLK (Homo sapiens) [1]): 300 nM
apparent Kd (screen) (ITK (Homo sapiens) [2]): 219 nM
apparent Kd (screen) (ABL2 (Homo sapiens) [3]): 152 nM
apparent Kd (screen) (PLCG2-NC (Homo sapiens)): 1630 nM
apparent Kd (screen) (PIK3R3-NC (Homo sapiens) [4]): 1020 nM
apparent Kd (screen) (RASA1-N (Homo sapiens) [5]): 180 nM
apparent Kd (screen) (GRB2 (Homo sapiens) [6]): 198 nM
apparent Kd (screen) (PIK3R1-NC (Homo sapiens) [7]): 670 nM
apparent Kd (screen) (ABL1 (Homo sapiens) [8]): 916 nM
apparent Kd (screen) (NCK2 (Homo sapiens) [9]): 1100 nM
apparent Kd (screen) (GRB10 (Homo sapiens)): 1300 nM
apparent Kd (screen) (PIK3R3-N (Homo sapiens) [10]): 507 nM
apparent Kd (screen) (SRC (Homo sapiens)): 1790 nM
apparent Kd (screen) (PIK3R2-NC (Homo sapiens) [11]): 1410 nM
apparent Kd (screen) (VAV2 (Homo sapiens) [12]): 542 nM
apparent Kd (screen) (YES1 (Homo sapiens)): 337 nM
apparent Kd (screen) (PIK3R2-N (Homo sapiens) [13]): 453 nM

…pYHNASNGPd
apparent Kd (screen) (ABL2 (Homo sapiens) [14]): 35 nM
apparent Kd (screen) (ABL2 (Homo sapiens) [15]): 755 nM
apparent Kd (screen) (PIK3R3-NC (Homo sapiens) [16]): 2000 nM
apparent Kd (screen) (ABL1 (Homo sapiens) [17]): 1820 nM
apparent Kd (screen) (NCK2 (Homo sapiens) [18]): 2000 nM
apparent Kd (screen) (SHC1-PTB (Homo sapiens) [19]): 717 nM
apparent Kd (screen) (SHC1-PTB (Homo sapiens) [20]): 277 nM

…pYLNTVQPTd
apparent Kd (screen) (ITK (Homo sapiens) [21]): 1760 nM
apparent Kd (screen) (ABL2 (Homo sapiens) [22]): 120 nM
apparent Kd (screen) (ABL2 (Homo sapiens) [23]): 85 nM
apparent Kd (screen) (PIK3R3-NC (Homo sapiens) [24]): 1690 nM
apparent Kd (screen) (RASA1-N (Homo sapiens) [25]): 388 nM
apparent Kd (screen) (ZAP70-NC (Homo sapiens)): 1140 nM
apparent Kd (screen) (GRB2 (Homo sapiens) [26]): 422 nM
apparent Kd (screen) (GRB2 (Homo sapiens) [27]): 724 nM
apparent Kd (screen) (PIK3R1-NC (Homo sapiens) [28]): 1570 nM
apparent Kd (screen) (NCK2 (Homo sapiens) [29]): 326 nM
apparent Kd (screen) (PIK3R3-N (Homo sapiens) [30]): 838 nM
apparent Kd (screen) (PIK3R2-NC (Homo sapiens) [31]): 857 nM
apparent Kd (screen) (SHC1-PTB (Homo sapiens) [32]): 173 nM
apparent Kd (screen) (SHC1-PTB (Homo sapiens) [33]): 133 nM
apparent Kd (screen) (VAV2 (Homo sapiens) [34]): 373 nM
apparent Kd (screen) (PIK3R2-N (Homo sapiens) [35]): 763 nM

…pYHAEGGKVd
apparent Kd (screen) (BLK (Homo sapiens) [36]): 1710 nM
apparent Kd (screen) (ABL2 (Homo sapiens) [37]): 1080 nM
apparent Kd (screen) (ABL2 (Homo sapiens) [38]): 2000 nM
